One data set has as its target T1, FliC peptide D20 (P. aeruginosa).
T1 construct: 15-residue stretch of P. aeruginosa FliC, spot D20 of the FliC SPOT membrane, domain D2; source: synthetic peptide, SPOT membrane (cellulose)
T1 peptide: LADQLNSNSSKLGIT
Put plainly: peptide or protein array; SPOT membrane of 159 synthetic 15-mer peptides (shift of 3) spanning FliC on cellulose; probed with purified recombinant DnaK (GST cleaved); bound DnaK detected with anti-DnaK antibody and alkaline phosphatase secondary antibody; intensity by ImageJ, background subtracted. The note with it: both partners purified.

A further data set has as its target T2, FliC peptide E22 (P. aeruginosa).
T2 construct: 15-residue stretch of P. aeruginosa FliC, spot E22 of the FliC SPOT membrane, domain D2; source: synthetic peptide, SPOT membrane (cellulose)
T2 peptide: TGYVQLNSPTAYSVS
The data set is described as above. The note with it: both partners purified.

Another data set has as its target T3, FliC peptide A10 (P. aeruginosa).
T3 construct: 15-residue stretch of P. aeruginosa FliC, spot A10 of the FliC SPOT membrane, domain D0; source: synthetic peptide, SPOT membrane (cellulose)
T3 peptide: SLQRLTTGYRINSAK
Described as above. The note with it: both partners purified.

A further data set addresses T4, FliC peptide B18 (P. aeruginosa).
T4 construct: 15-residue stretch of P. aeruginosa FliC, spot B18 of the FliC SPOT membrane, domain D1; source: synthetic peptide, SPOT membrane (cellulose)
T4 peptide: TRISDTTTFGGRKLL
Described as above. The note with it: both partners purified.

The target in a further data set is T5, FliC peptide E20 (P. aeruginosa).
T5 construct: 15-residue stretch of P. aeruginosa FliC, spot E20 of the FliC SPOT membrane, domain D2; also called E20 (FliC membrane); source: synthetic peptide, SPOT membrane (cellulose)
T5 peptide: ATTTVVTGYVQLNSP
The description is as above. The note with it: both partners purified.

Another data set has as its target T6, FliC peptide C20 (P. aeruginosa).
T6 construct: 15-residue stretch of P. aeruginosa FliC, spot C20 of the FliC SPOT membrane, domain D3; source: synthetic peptide, SPOT membrane (cellulose)
T6 peptide: VGGGQVKNIAIAAGD
Described as above. The note with it: both partners purified.

A further data set has as its target T7, FliC peptide E21 (P. aeruginosa).
T7 construct: 15-residue stretch of P. aeruginosa FliC, spot E21 of the FliC SPOT membrane, domain D2; source: synthetic peptide, SPOT membrane (cellulose)
T7 peptide: TVVTGYVQLNSPTAY
The data set is described as above. The note with it: both partners purified.

The next data set concerns the target T8, FliC peptide A9 (P. aeruginosa).
T8 construct: 15-residue stretch of P. aeruginosa FliC, spot A9 of the FliC SPOT membrane, domain D0; source: synthetic peptide, SPOT membrane (cellulose)
T8 peptide: LNTSLQRLTTGYRIN
The description is as above. The note with it: both partners purified.

The target in the next data set is T9, FliC peptide F22 (P. aeruginosa).
T9 construct: 15-residue stretch of P. aeruginosa FliC, spot F22 of the FliC SPOT membrane, domain D1; source: synthetic peptide, SPOT membrane (cellulose)
T9 peptide: NRFKNTIDNLTNISE
Described as above. The note with it: both partners purified.

Another data set concerns the target T10, FliC peptide A16 (P. aeruginosa).
T10 construct: 15-residue stretch of P. aeruginosa FliC, spot A16 of the FliC SPOT membrane, domain D1; source: synthetic peptide, SPOT membrane (cellulose)
T10 peptide: AGLQISNRLSNQISG
The description is as above. The note with it: both partners purified.

In a further data set the target is T11, FliC peptide F19 (P. aeruginosa).
T11 construct: 15-residue stretch of P. aeruginosa FliC, spot F19 of the FliC SPOT membrane, domain D1; source: synthetic peptide, SPOT membrane (cellulose)
T11 peptide: QRADLGAVQNRFKNT
Described as above. The note with it: both partners purified.

A further data set concerns the target T12, FliC peptide D5 (P. aeruginosa).
T12 construct: 15-residue stretch of P. aeruginosa FliC, spot D5 of the FliC SPOT membrane, domain D3; source: synthetic peptide, SPOT membrane (cellulose)
T12 peptide: IPNLSARARTVFTAD
The description is as above. The note with it: both partners purified.

The target of data set [1] is SOD1bar mutant G41D (SOD1bar-G41D), FRET folding sensor. Nature of the data set: cell-based or functional assay.
In another data set the target is T13, DnaK peptide H13 (P. aeruginosa).
T13 construct: 15-residue stretch of P. aeruginosa DnaK, spot H13 of the DnaK SPOT membrane, domain SBD; source: synthetic peptide, SPOT membrane (cellulose)
T13 peptide: ARNQGDALVHATRKM
Put plainly: peptide or protein array; SPOT membrane of 209 synthetic 15-mer peptides (shift of 3) spanning DnaK on cellulose; probed with purified recombinant FliC (GST cleaved); bound FliC detected with anti-FliC antibody and alkaline phosphatase secondary antibody; intensity by ImageJ, background subtracted. The note with it: both partners purified.

Another data set has as its target T14, DnaK peptide E20 (P. aeruginosa).
T14 construct: 15-residue stretch of P. aeruginosa DnaK, spot E20 of the DnaK SPOT membrane, domain NBD (ATPase); also called E20 (DnaK membrane); source: synthetic peptide, SPOT membrane (cellulose)
T14 peptide: VGGQTRMPLVQKTVA
Described as above. The note with it: both partners purified.

A further data set has as its target T15, DnaK peptide H14 (P. aeruginosa).
T15 construct: 15-residue stretch of P. aeruginosa DnaK, spot H14 of the DnaK SPOT membrane, domain SBD; source: synthetic peptide, SPOT membrane (cellulose)
T15 peptide: QGDALVHATRKMITE
Described as above. The note with it: both partners purified.

The next data set has as its target T16, DnaK peptide E18 (P. aeruginosa).
T16 construct: 15-residue stretch of P. aeruginosa DnaK, spot E18 of the DnaK SPOT membrane, domain NBD (ATPase); source: synthetic peptide, SPOT membrane (cellulose)
T16 peptide: IHEVILVGGQTRMPL
The description is as above. The note with it: both partners purified.

The values that follow come from publication PMC11816700, “Multiple Chaperone DnaK–FliC Flagellin Interactions are Required for Pseudomonas aeruginosa Flagellum Assembly and Indicate a New Function for DnaK” (Microbial Biotechnology, 2025).

B1: purified recombinant P. aeruginosa DnaK (natural protein)
chain: not shown
notes: DnaK of P. aeruginosa UCBPP-PA14, gene amplified with primers dnaKFw/Rv and cloned BamHI/XhoI into pGEX-6P-1; also called DnaK-GST (before cleavage); source: E. coli BL21(λDE3), pGEX-6P-1-dnaK, purified (Glutathione Sepharose 4B, eluted by prescission protease)
With B1, the Intensity with FliC peptide D20 is 2.85 relative intensity; with FliC peptide E22 it was 3.55 relative intensity; in the data set with FliC peptide A10 it was 2.4 relative intensity; in the data set with FliC peptide B18, 5.07 relative intensity; with FliC peptide E20, 2.36 relative intensity; with FliC peptide C20, 3.05 relative intensity. For the same molecule, the Intensity in the data set with FliC peptide E21 was found to be 2.87 relative intensity; with FliC peptide A9 it was 2.51 relative intensity; in the data set with FliC peptide F22, 2.3 relative intensity; with FliC peptide A16, 4.17 relative intensity; with FliC peptide F19 it was 2.34 relative intensity; with FliC peptide D5, 2.22 relative intensity. The “decrease of the melting temperature (Tm) of SOD1bar-G41D with DnaK (20 μM), pH 7, fast relaxation imaging (FReI); not affected by ATP or AMP-PNP” value in [1] was around 10 K. In addition, the “fold decrease of the maximal ΔD/A Initial of DnaK+SOD1bar-G41D at pH 6 when 2 mM ATP or AMP-PNP was added” value in [1] was around 1.7 fold. Besides, the “fold increase of kobs of the ΔD/A Initial curve of DnaK+SOD1bar-G41D at pH 6 when 2 mM AMP-PNP was added” value in data set [1] came out at 2 fold. The “fold increase of kobs of the ΔD/A Initial curve of DnaK+SOD1bar-G41D at pH 6 when 2 mM ATP was added” value in [1] was 4 fold. Further, the “melting temperature (Tm) of SOD1bar-G41D when supplemented with DnaK, FReI” value in data set [1] stood at 308 K. In addition, the “reduction of the folding rate (kf) of SOD1bar-G41D at 310 K with DnaK (20 μM), pH 7, FReI” value in data set [1] was around 3 fold.

B2: purified recombinant P. aeruginosa FliC (natural protein, UniProt A0A0H2Z7X1 1-488, looked up)
chain: MALTVNTNIASLNTQRNLNASSNDLNTSLQRLTTGYRINSAKDDAAGLQISNRLSNQISGLNVATRNANDGISLAQTAEGALQQSTNILQRIRDLALQSANGSNSDADRAALQKEVAAQQAELTRISDTTTFGGRKLLDGSFGTTSFQVGSNAYETIDISLQNASASAIGSYQVGSNGAGTVASVAGTATASGIASGTVNLVGGGQVKNIAIAAGDSAKAIAEKMDGAIPNLSARARTVFTADVSGVTGGSLNFDVTVGSNTVSLAGVTSTQDLADQLNSNSSKLGITASINDKGVLTITSATGENVKFGAQTGTATAGQVAVKVQGSDGKFEAAAKNVVAAGTAATTTVVTGYVQLNSPTAYSVSGTGTQASQVFGNASAAQKSSVASVDISTADGAQNAIAVVDNALAAIDAQRADLGAVQNRFKNTIDNLTNISENATNARSRIKDTDFAAETAALSKNQVLQQAGTAILAQANQLPQAVLSLLR
notes: FliC (flagellin type B) of P. aeruginosa UCBPP-PA14, gene amplified with primers fliCFw/Rv and cloned BamHI/XhoI into pGEX-6P-1; also called FliC-GST (before cleavage); source: E. coli BL21(λDE3), pGEX-6P-1-fliC, purified (Glutathione Sepharose 4B, eluted by prescission protease)
On to B2, for which the Intensity in the data set with DnaK peptide H13 was found to be 2.23 relative intensity; in the data set with DnaK peptide E20, 2.22 relative intensity; with DnaK peptide H14, 3.34 relative intensity; with DnaK peptide E18, 2.23 relative intensity.
